Assay [1] concerns the target T1, active-form HB-EGF protein (R&D Systems, Inc., 259-HE) (human, UniProt Q99075 63-148).
T1 construct: also called sHB-EGF; secreted-form HB-EGF
Briefly: ELISA, purified antibody on plate coated with 1 µg/mL HB-EGF; given as ED50. A general note: An ELISA detects its analyte on a solid surface through an enzyme-linked reagent.

Assay [2] addresses T1, active-form HB-EGF protein (R&D …). Kind of assay: competition ELISA: inhibition of HB-EGF (50 ng/mL) binding to immobilised EGFR-Fc.
The target is the same in assay [3]. Briefly: cell-based or functional assay.
Assay [4] has the same target. Kind of assay: cell-based or functional assay. This is another data set of the same source.
Assay [5] shares this target. Kind of assay: ELISA, purified antibody on plate coated with 1 µg/mL HB-EGF; printed as ED50 (antibody concentration that gave 50% binding).

This is an account of results in patent US20100266502A1 (Chugai, published 2010).

T1 sequence (Q99075 63-148 limits assumed): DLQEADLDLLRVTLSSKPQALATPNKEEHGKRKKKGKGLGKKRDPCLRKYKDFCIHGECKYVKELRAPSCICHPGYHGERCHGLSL

B1: HE-39 (antibody, V domains shown)
VH: EVQLQQSGPELMKPGASVKMSCKASGYIFTDYYMNWVKQSHGKSLEWIGRVNPNNGGTSYSQKFKDKATLTVDKSLNTAYMQVNSLTSEDSAVYYCARIYYGGSDWGQGTTLTVSS
VL: EIVMTQTPLSLSVTIGQPASISCKSSQSLLYTTGKTYLNWLQQRPGQAPKHLMYQVSKLVPGIPDRFSGSGSETDFTLKISRVEAEDLGVYYCLQGTYYPHTFGSGTKLEIK
For the molecule B1, the figures for the EC50 in assay [1] and in assay [2] were 0.016 nM and 0.86 nM, respectively. The “Inhibition of HB-EGF-dependent growth (EC50, nmol/L)” value in assay [3] was 0.83 nmol/L.

B2: HC-15 (antibody, V domains shown)
VH: EVQLQQSGPELVKPGASVKISCKASGYSFTGYYMHWVKQSPEKRLEWIGEINPRTGITTYNQKFKAKATLTVDKSSSTAYMQLKSLTSEDSAVYYCARVGSSGPFTYWGQGTLVTVSA
VL: DIVMTQSPSSLSVSAGDKVTMSCKSSQSLLNSRNQKNYLAWYQQKPWQPPKLLIYGASTRESGVPDRFTGSGSGTDFTLTISSVQAEDLAVYYCQNDYSYPFTFGTGTKLEIK
For the molecule B2, the EC50 in assay [1] worked out at 0.65 nM; in assay [2], 0.52 nM; in assay [5], 0.2 nM. Also, in assay [4], the “EC50 (nM), growth-inhibiting effect on EGFR_Ba/F3 cells” value is 3.8 nM. Also, in assay [3], the “Inhibition of HB-EGF-dependent growth (EC50, nmol/L)” value was 2.06 nmol/L.

By EC50 is commonly meant the midpoint of the concentration-response curve. Lower therefore signals a more potent agent.
